Experimental data published in patent US12383631.

How the values were obtained:
Experiment in all cases: cell-based or functional assay
[1] = molecular target: Composition A (LZM-009 conjugated to IL-18 polypeptide of SEQ ID NO: 30) (human) (UniProt Q14116)
[2] = molecular target: Composition B (Atezolizumab/Tecentriq conjugated to IL-18 polypeptide of SEQ ID NO: 30) (human) [IgG part: P0DOX5]
[3] = molecular target: Composition D (LZM-009 conjugated to IL-18 polypeptide of SEQ ID NO: 31) (human) (UniProt Q14116)
[4] = molecular target: IL-18 polypeptide C145 (human) (UniProt Q14116)
[5] = molecular target: IL-18 polypeptide C148 (human) (UniProt Q14116)
[6] = molecular target: IL-18 polypeptide C149 (human) (UniProt Q14116)
[7] = molecular target: IL-18 polypeptide C156 (human) (UniProt Q14116)
[8] = molecular target: IL-18 polypeptide C159 (human) (UniProt Q14116)
[9] = molecular target: IL-18 polypeptide C162 (human) (UniProt Q14116)
[10] = molecular target: IL-18 polypeptide C166 (human) (UniProt Q14116)
[11] = molecular target: IL-18 polypeptide C168 (human) (UniProt Q14116)
[12] = molecular target: IL-18 polypeptide of SEQ ID NO: 36 (K53A) (human) (UniProt Q14116)
[13] = molecular target: IL-18 polypeptide of SEQ ID NO: 37 (S55A) (human) (UniProt Q14116)
[14] = molecular target: IL-18 polypeptide of SEQ ID NO: 4 (E6K, C38A, K53A, C68A, M86C) (human) (UniProt Q14116)
[15] = molecular target: IL-18 polypeptide of SEQ ID NO: 40 (E06K, S55A) (human) (UniProt Q14116)
[16] = molecular target: IL-18 polypeptide of SEQ ID NO: 43 (E06K, K53A, S55A, Y01G) (human) (UniProt Q14116)
[17] = molecular target: IL-18 polypeptide of SEQ ID NO: 46 (E06K, K53A, S55A, M51G) (human) (UniProt Q14116)
[18] = molecular target: IL-18 polypeptide of SEQ ID NO: 5 (E6K, V11I, C38A, K53A, T63A, C68A, C76A, M86C, C127A) (human) (UniProt Q14116)
[19] = molecular target: IL-18 polypeptide of SEQ ID NO: 50 (E06K, K53A, T63A) (human) (UniProt Q14116)
[20] = molecular target: IL-18 polypeptide of SEQ ID NO: 51 (T63A) (human) (UniProt Q14116)
[21] = molecular target: IL-18 polypeptide of SEQ ID NO: 54 (E06K, K53A, C38S, C68S, C76S, C127S, K70C) (human) (UniProt Q14116)
[22] = molecular target: IL-18 polypeptide of SEQ ID NO: 55 (K53A, T63A, C38S, C68S, C76S, C127S, K70C) (human) (UniProt Q14116)
[23] = molecular target: IL-18 polypeptide of SEQ ID NO: 57 (E6K, C38S, K53A) (human) (UniProt Q14116)
[24] = molecular target: IL-18 polypeptide of SEQ ID NO: 59 (E6K, C38A, K53A) (human) (UniProt Q14116)
[25] = molecular target: IL-18 polypeptide of SEQ ID NO: 60 (E6K, C38Q, K53A) (human) (UniProt Q14116)

## Fc fused human IL-18 binding protein isoform a (IL-18BPa; R&D systems, Cat #119-BP) (from UniProt O95998 31-194) (Fc fusion)
[1]
  IC50 of IL-18BPa on IFNγ secretion by NK92 cells: 6.87 nM
[2]
  IC50 of IL-18BPa on IFNγ secretion by NK92 cells: > 1000 nM
[3]
  IC50 of IL-18BPa on IFNγ secretion by NK92 cells: 0.098 nM
[4]
  IC50 of IL-18BP on IFNγ secretion, NK92 cells: 10.2 nM
[5]
  IC50 of IL-18BP on IFNγ secretion, NK92 cells: 5.05 nM
[6]
  IC50 of IL-18BP on IFNγ secretion, NK92 cells: 1.17 nM
[7]
  IC50 of IL-18BP on IFNγ secretion, NK92 cells: 0.681 nM
[8]
  IC50 of IL-18BP on IFNγ secretion, NK92 cells: 1.81 nM
[9]
  IC50 of IL-18BP on IFNγ secretion, NK92 cells: 7.29 nM
[10]
  IC50 of IL-18BP on IFNγ secretion, NK92 cells: 0.44 nM
[11]
  IC50 of IL-18BP on IFNγ secretion, NK92 cells: 0.176 nM
[12]
  IC50 of IL-18BP on IFNγ secretion, NK92 cells: 27.3 nM
[13]
  IC50 of IL-18BP on IFNγ secretion, NK92 cells: 4.46 nM
[14]
  IC50 of IL-18BP on IFNγ secretion, NK92 cells: 396 nM
[15]
  IC50 of IL-18BP on IFNγ secretion, NK92 cells: 15 nM
[16]
  IC50 of IL-18BP on IFNγ secretion, NK92 cells: 27.8 nM
[17]
  IC50 of IL-18BP on IFNγ secretion, NK92 cells: 0.189 nM
[18]
  IC50 of IL-18BP on IFNγ secretion, NK92 cells: 62.4 nM
[19]
  IC50 of IL-18BP on IFNγ secretion, NK92 cells: > 1000 nM
[20]
  IC50 of IL-18BP on IFNγ secretion, NK92 cells: 0.239 nM
[21]
  IC50 of IL-18BP on IFNγ secretion, NK92 cells: 23.5 nM
[22]
  IC50 of IL-18BP on IFNγ secretion, NK92 cells: > 1000 nM
[23]
  IC50 of IL-18BP on IFNγ secretion, NK92 cells: 146 nM
[24]
  IC50 of IL-18BP on IFNγ secretion, NK92 cells: 654 nM
[25]
  IC50 of IL-18BP on IFNγ secretion, NK92 cells: 780 nM
